{
  "source": "patent US20250262271A1",
  "about": "(ARIZONA BOARD OF REGENTS ON BEHALF OF THE UNIVERSITY OF …, published 2025)",
  "molecular_target": "T1, Kog1-FLAG (Saccharomyces cerevisiae, UniProt P38873 1-1557)",
  "T1 construct": "Bait of the TORC1 immunopurifications; also called TORC1 subunit Kog1/Raptor with FLAG tag; TORC1 (as purified through Kog1-FLAG); not shown: FLAG tag",
  "T1 sequence (P38873 whole entry)": "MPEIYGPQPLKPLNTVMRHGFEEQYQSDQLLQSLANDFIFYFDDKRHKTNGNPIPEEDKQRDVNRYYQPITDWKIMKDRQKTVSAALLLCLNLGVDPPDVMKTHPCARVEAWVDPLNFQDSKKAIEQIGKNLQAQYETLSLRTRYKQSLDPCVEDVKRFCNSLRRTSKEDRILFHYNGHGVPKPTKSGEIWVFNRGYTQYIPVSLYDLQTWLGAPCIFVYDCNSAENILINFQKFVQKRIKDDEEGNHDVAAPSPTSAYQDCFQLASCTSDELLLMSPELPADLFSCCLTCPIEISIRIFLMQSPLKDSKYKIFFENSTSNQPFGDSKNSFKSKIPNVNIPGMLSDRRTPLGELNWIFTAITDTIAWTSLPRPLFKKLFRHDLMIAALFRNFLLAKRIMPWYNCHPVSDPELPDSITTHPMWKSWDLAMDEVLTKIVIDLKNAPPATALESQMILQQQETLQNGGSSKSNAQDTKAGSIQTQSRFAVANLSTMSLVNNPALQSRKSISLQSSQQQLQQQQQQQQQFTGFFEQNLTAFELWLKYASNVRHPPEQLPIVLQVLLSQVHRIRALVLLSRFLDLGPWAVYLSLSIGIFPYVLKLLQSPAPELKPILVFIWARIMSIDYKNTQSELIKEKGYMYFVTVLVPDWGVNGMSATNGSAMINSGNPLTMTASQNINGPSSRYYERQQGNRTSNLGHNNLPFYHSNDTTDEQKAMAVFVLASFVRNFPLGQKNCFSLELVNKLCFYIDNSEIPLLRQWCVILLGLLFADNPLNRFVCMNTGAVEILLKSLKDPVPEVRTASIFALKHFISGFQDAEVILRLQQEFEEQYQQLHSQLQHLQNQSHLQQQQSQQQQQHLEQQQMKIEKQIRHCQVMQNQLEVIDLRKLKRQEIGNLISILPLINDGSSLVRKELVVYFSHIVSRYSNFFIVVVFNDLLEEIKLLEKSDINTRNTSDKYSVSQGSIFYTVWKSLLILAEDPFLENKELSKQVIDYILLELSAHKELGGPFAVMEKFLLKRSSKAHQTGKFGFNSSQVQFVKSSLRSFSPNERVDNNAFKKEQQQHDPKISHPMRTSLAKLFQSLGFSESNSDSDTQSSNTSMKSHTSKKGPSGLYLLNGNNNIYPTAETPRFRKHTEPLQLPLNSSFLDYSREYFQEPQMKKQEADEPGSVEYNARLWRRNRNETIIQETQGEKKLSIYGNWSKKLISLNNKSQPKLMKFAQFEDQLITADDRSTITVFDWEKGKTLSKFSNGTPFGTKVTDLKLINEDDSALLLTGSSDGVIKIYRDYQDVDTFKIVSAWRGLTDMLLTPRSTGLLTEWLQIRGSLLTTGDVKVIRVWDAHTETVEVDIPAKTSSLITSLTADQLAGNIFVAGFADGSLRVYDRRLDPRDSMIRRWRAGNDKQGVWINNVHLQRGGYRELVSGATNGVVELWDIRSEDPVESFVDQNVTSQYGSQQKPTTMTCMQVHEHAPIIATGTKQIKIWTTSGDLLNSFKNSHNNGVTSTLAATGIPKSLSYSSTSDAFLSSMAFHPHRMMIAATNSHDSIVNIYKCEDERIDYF",
  "assay": "co-immunopurification after DSP crosslinking, Western blot; long term amino acid and glucose starvation",
  "data": [
    {"binder": "GFP-Ait1 (other, Expressed in S. cerevisiae (W303) and immunopurified from DSP-crosslinked, digitonin-treated lysate; also called Ait1-GFP; GFP-tagged Ydl180w; not shown: GFP tag) MVRLNHAASYFMPIFCSTRPHIVILSALFSISLFSLFYASSELLLHQYDDPLMFKPNSQDYFRTFLLGLFSPFLYYFLKTFLFNINQRFLILNLIVDFPINDVFMLLILIGLAYPQVQDHEGGTIKHKECSWHIIPRQAYIFGISWALGEFTICIIGNLFNYQEIADPNINSGFTHQESANTYCNNNDMSHNDDCGCSTEYRPNVVDRSDITLSKCIEVRNDSSSISNNVYSSEYHPIKPLRSSSSTYGSIRQQPHENKKQLHVPDNSQDDTIIMMNPIDNSLKLTTLDTGDLSFPIDEEQPILKKSFGYTWAVPNENTQNTTKSFTPIKRFIAFSTAYQLVTGLLLMILVVGSNIMLTIGESLILSMYFVYVRGHEGLFTPVVNYFGSRTISNFILCVIIPFISLNFLINTSIYLRRELDDWFNNSQGEFEDDDENTISKRVATNQEYQHPLSANYISMDSPDVINSSPGHFGMNSGQLLGNTTLYYGSLNGDDDDMTNDSALLRFCKKLVKNWRALARNDSFVLGVMVSWSLLVFVTGILSTVYI", "values": [
      {"measurement": "co-purified amount relative to log phase growth", "value": 50, "unit": "%"}
    ]}
  ]
}
